The values that follow come from patent US20120014885A1 (DANISCO US, published 2012).

Ends that are not written are not given here.

Experiment [1] deals with T1, BSA (UniProt P02769 25-607). As to the kind of experiment: phage ELISA, equivalent amounts of phage, anti-M13-HRP, ABTS, A405 after 30 min (n=3). For orientation: In an ELISA, binding on a coated surface is turned into a signal by an enzyme label.
Experimental: (§1) Equivalent amounts of phage were evaluated to determine their relative binding affinity to hVEGF₁₆₅. […] Target-bound phage were detected with anti-M13-HRP.
In experiment [2] the target is T2, human VEGF165 (human, UniProt P15692-4 27-191).
T2 construct: Bought protein; panning target, amine-coupled to CM5 chips for BIAcore, coated on plates; also called hVEGF165; hVEGF
Kind of experiment: bound beta-lactamase activity (nitrocefin, mOD/min) on hVEGF165 coated wells after washing.

Experiment [3] addresses T1, BSA. Kind of experiment: phage ELISA, anti-M13-HRP, ABTS, A405.
Experimental: as §1
Experiment [4] deals with T3, VegF (PeproTech), labeled with biotin (UniProt P15692-4 27-191, limits assumed, biotin label (site not stated)).
T3 construct: Captured on streptavidin coated beads in the BioVeris ECL assay; also called biotinylated VegF
As to the kind of experiment: ECL competition assay (BioVeris): biotinylated VegF on streptavidin beads, competitor ECL labeled Anti-VegF antibody.

Experiment [5] addresses T2, human VEGF165. Kind of experiment: SPR (BIAcore 3000), VEGF165 coupled to CM5, peptide injected, TNF-alpha reference lane; two state reaction model with conformation change; overall KD of the two state fit.
Experimental: (§2) Affinities of the peptides for VEGF were measured using a BIAcore™-3000 surface plasmon resonance system (Biacore). A CM5 sensor chip was conditioned with 50 mM NaOH, 0.1% HCl, 0.1% SDS, and 0.08% H₃PO₄, and activated for covalent coupling of VEGF using N-ethyl-N′-(3-dimethylaminopropyl)-carbodiimide hydrochloride (EDC) and N-hydroxysuccinimide (NHS) according to the supplier's instructions (Biacore). Human VEGF₁₆₅ (Biosource) was diluted to 5 μg/ml in 20 mM sodium acetate, pH 4.8 and injected at a flow rate of 2 μl/min to achieve approximately 1000 to 6000 response units (RU) of coupled protein. TNF-alpha (human TNF-alpha, Biosource, Int., Camarillo, Calif.) was similarly coupled to the CM5 sensor chip to approximately 850 to 3500 RU in the reference lane. A solution of 1 M ethanolamine was injected as a blocking agent. In some experiments, an additional solution of EDC and NHS were injected to improve baseline stability and a solution of 1 M ethanolamine injected as a blocking agent. The reference lane was activated with EDC and NHS and blocked with ethanolamine.
Experiment [6] deals with T2, human VEGF165. As to the kind of experiment: SPR (BIAcore 3000), VEGF165 coupled to CM5, peptide injected, TNF-alpha reference lane; two state reaction model with conformation change; first step of the two state fit (ka1). Background: SPR reads the build-up and loss of mass on a sensor chip optically.
Experimental: as §2
The target in experiment [7] is T2, human VEGF165. As to the kind of experiment: SPR (BIAcore 3000), VEGF165 coupled to CM5, peptide injected, TNF-alpha reference lane; two state reaction model with conformation change; first step of the two state fit (kd1).
Experimental: as §2

T2 sequence (P15692 other isoform, or with tags, fused parts or gaps limits assumed): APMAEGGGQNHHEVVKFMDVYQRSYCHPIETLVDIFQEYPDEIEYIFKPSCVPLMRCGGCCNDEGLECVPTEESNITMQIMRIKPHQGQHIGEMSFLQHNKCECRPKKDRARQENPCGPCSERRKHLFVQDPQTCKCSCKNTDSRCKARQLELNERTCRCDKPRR
T1 sequence (P02769 25-607 limits assumed): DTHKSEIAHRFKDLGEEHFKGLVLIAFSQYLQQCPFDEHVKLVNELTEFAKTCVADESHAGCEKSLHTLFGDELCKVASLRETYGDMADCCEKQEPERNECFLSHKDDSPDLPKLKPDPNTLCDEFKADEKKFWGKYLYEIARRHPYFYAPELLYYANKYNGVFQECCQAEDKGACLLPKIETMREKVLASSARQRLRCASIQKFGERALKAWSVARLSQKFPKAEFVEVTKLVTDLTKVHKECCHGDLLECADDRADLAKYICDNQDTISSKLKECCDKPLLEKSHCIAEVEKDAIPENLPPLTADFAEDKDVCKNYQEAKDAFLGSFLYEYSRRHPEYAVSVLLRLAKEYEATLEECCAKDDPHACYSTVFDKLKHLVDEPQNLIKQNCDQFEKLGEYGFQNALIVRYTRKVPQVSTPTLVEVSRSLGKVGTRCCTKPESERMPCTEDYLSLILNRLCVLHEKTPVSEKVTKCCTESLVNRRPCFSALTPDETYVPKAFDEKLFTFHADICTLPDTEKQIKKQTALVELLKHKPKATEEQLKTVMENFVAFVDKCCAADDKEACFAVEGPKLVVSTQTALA
T3 sequence (P15692 other isoform, or with tags, fused parts or gaps limits assumed): as the sequence (P15692 other isoform, or with tags, fused parts or gaps limits assumed) above

Turning to TLWPSYW (tested as whole phage) [SEQ ID NO 7], the binding result in the experiment with BSA [1] is given as “no binding”.

B1: BLA (enzyme)
chain: TPVSEKQLAEVVANTITPLMKAQSVPGMAVAVIYQGKPHYYTFGKADIAANKPVTPQTLFELGSISKTFTGVLGGDAIARGEISLDDAVTRYWPQLTGKQWQGIRMLDLATYTAGGLPLQVPDEVTDNASLLRFYQNWQPQWKPGTTRLYANASIGLFGALAVKPSGMPYEQAMTTRVLKPLKLDHTWINVPKAEEAHYAWGYRDGKAVRVSPGMLDAQAYGVKTNVQDMANWVMANMAPENVADASLKQGIALAQSRYWRIGSMYQGLGWEMLNWPVEANTVVEGSDSKVALAPLPVAEVNPPAPPVKASWVHKTGSTGGFGSYVAFIPEKQIGIVMLANTSYPNPARVEAAYHILEALQHHHHHH
notes: also called pCB04; pCB04 (WT)
With B1, the binding result with human VEGF165 [2] is “no binding (tested: about 40 uM)”.

Regarding APWNSHI (tested as whole phage) [SEQ ID NO 5], the binding result in the experiment with BSA [1] was “no binding”.

Consider APWNLHI (tested as whole phage) [SEQ ID NO 6], for which the binding result with BSA [3] is given as “no binding”.

Turning to NLWPHFW (tested as whole phage) [SEQ ID NO 3], the binding result with BSA [1] was “no binding”.

Regarding HLAPSAV (tested as whole phage) [SEQ ID NO 13], the binding result with BSA [1] is listed as “no binding”.

For TLWPTFW (tested as whole phage) [SEQ ID NO 2], in the experiment with BSA [1], the binding result is recorded as “no binding”.

B2: 2BBIck81 (designed binder)
chain: DDESSKPCCDQCACTKSNPPQCRCSDMRLNSCHSACKSCACYNLYGWTCFCVDITDFCYEPCKPSEDDKEN
notes: also called free 2BBIck81; 2BBlck81
In the case of B2, the “IC50 (read off the curve)” value in experiment [4] was approximately 3000 nM.

Take SLWPAFW (tested as whole phage) [SEQ ID NO 4]: the binding result with BSA [1] is “no binding”.

B3: SEQ ID NO 1 (peptide)
peptide: YNLYGWT
notes: Clone of the PhD C7C library (NEB): the 7-mer stands between two cysteines on M13 phage; tested as whole phage; also called YNLYGWT
As for B3, in the experiment with BSA [1], the binding result was “no binding”.

B4: biotinylated peptide CK37281 (peptide)
peptide: ACYNLYGWTC
modifications: cysteine pairing not given here; also: biotinylated (site not given here)
notes: Synthetic peptide (FMOC chemistry, SynPep)
For B4, in the experiment with human VEGF165 [5], the dissociation constant Kd (as a rule, the equilibrium constant for the complex coming apart) was 1920 nM. Besides, the on-rate constant (kon) (as a rule, a measure of how fast the partners come together) with human VEGF165 [6] came out at 2840 M⁻¹ s⁻¹. The off-rate constant (koff) (usually the first-order rate constant of dissociation) with human VEGF165 [7] was found to be 0.0122 s⁻¹.
